Measured values reported in PMC5099578, “A structural and functional study on the 2-C-methyl-D-erythritol-4-phosphate cytidyltransferase (IspD) from Bacillus subtilis” (Scientific Reports, 2016).

Key:
Experiment in all cases: purified protein
[1] = substrate: Nc1ccn([C@@H]2O[C@H](COP(=O)(O)OP(=O)(O)OP(=O)(O)O)[C@@H](O)[C@H]2O)c(=O)n1; type: biochemical, Bacillus subtilis; conditions: MEP co-substrate, 1 mM MgCl2, 0.1 M Tris-HCl pH 8.0, 1 mM DTT, 30 °C, CTP varied 10-500 μM, paper inconsistent: text gives 124.8 for CTP, Table 2 prints it under MEP
[2] = substrate: C[C@](O)(CO)[C@H](O)COP(=O)(O)O; type: biochemical, Bacillus subtilis; conditions: CTP co-substrate, 1 mM MgCl2, 0.1 M Tris-HCl pH 8.0, 1 mM DTT, 30 °C, MEP varied 10-400 μM, paper inconsistent: text gives 132.8 for MEP, Table 2 prints it under CTP
[3] = substrate: Nc1ccn([C@@H]2O[C@H](COP(=O)(O)OP(=O)(O)OP(=O)(O)O)[C@@H](O)[C@H]2O)c(=O)n1; conditions: MEP co-substrate, 1 mM MgCl2, 0.1 M Tris-HCl pH 8.0, 1 mM DTT, 30 °C, CTP varied 10-500 μM, paper inconsistent: text gives 291.5 for CTP (kcat 2307.7), Table 2 prints it under MEP (kcat 2307.2)

B1: BsIspD (Bacillus subtilis subsp. subtilis str. 168) (protein)
chain: MSYDVVIPAAGQGKRMKAGRNKLFIELKGDPVIIHTLRVFDSHRQCDKIILVINEQEREHFQQLLSDYPFQTSIELVAGGDERQHSVYKGLKAVKQEKIVLVHDGARPFIKHEQIDELIAEAEQTGAAILAVPVKDTIKRVQDLQVSETIERSSLWAVQTPQAFRLSLLMKAHAEAERKGFLGTDDASLVEQMEGGSVRVVEGSYTNIKLTTPDDLTSAEAIMESESGNKHV
notes: full length (699 bp gene, 232 residues built); pGEX-6P-1, expressed in E. coli, GST tag cut with PreScission protease; homodimer
Km [1]: 124.8 ± 19 µM
kcat [1]: 36.3 s⁻¹
kcat/Km [1]: 291000 M⁻¹ s⁻¹
Km [2]: 132.8 ± 29 µM
kcat [2]: 71.2 s⁻¹
kcat/Km [2]: 536000 M⁻¹ s⁻¹

B2: EcIspD (Escherichia coli K-12) (protein)
chain: ATTHLDVCAVVPAAGFGRRMQTECPKQYLSIGNQTILEHSVHALLAHPRVKRVVIAISPGDSRFAQLPLANHPQITVVDGGDERADSVLAGLKAAGDAQWVLVHDAARPCLHQDDLARLLALSETSRTGGILAAPVRDTMKRAEPGKNAIAHTVDRNGLWHALTPQFFPRELLHDCLTRALNEGATITDEASALEYCGFHPQLVEGRADNIKVTRPEDLALAEFYLTRTIHQENT
notes: pET22b, C-terminal His6 tag removed with thrombin; expressed in E. coli BL21 (DE3)
Km [3]: 291.5 ± 44 µM
kcat [3]: 38.5 s⁻¹
kcat/Km [3]: 132000 M⁻¹ s⁻¹
